What was measured:
[1] = molecular target: T1, polymerase module (Cft1-Pap1-Pfs2-Fip1-Yth1);Mpe1 (Saccharomyces cerevisiae;Saccharomyces …, UniProt Q06632;P29468;P42841;P45976;Q06102;P35728 1-1357;1-568;1-465;1-327;1-208;1-441, |); assay: size exclusion chromatography; 5 uM polymerase module, 15 uM Mpe1, 10 uM RNA; comigration, later elution; EMSA: SEC 50 buffer (composition not given in material), 50 nM FAM-RNA, 10% native PAGE 1X TBE, room temperature; SEC: Superose 6 Increase 3.2/300 in SEC 50; conditions: protein: recombinant;recombinant; tags: untagged (from polymerase module-Mpe1 purification); Pfs2-SII in some preparations;C-terminal SII; copies: 1;1;1;1;1;1; label: 5' 6-FAM; single strand
[2] = molecular target: T1, polymerase module …; assay: cryo-EM; Zn2+; 2.66 A; EMSA: SEC 50 buffer (composition not given in material), 50 nM FAM-RNA, 10% native PAGE 1X TBE, room temperature; SEC: Superose 6 Increase 3.2/300 in SEC 50; conditions: protein: recombinant;recombinant; tags: untagged (from polymerase module-Mpe1 purification); Pfs2-SII in some preparations;C-terminal SII; copies: 1;1;1;1;1;1; single strand; 4 nt modelled
[3] = molecular target: polymerase module (Cft1-Pap1-Pfs2-Fip1-Yth1);Mpe1;yPIM peptide of Cft2 (Saccharomyces cerevisiae;Saccharomyces …, UniProt Q06632;P29468;P42841;P45976;Q06102;P35728;Q12102 …, ||); assay: cryo-EM; Zn2+; 2.61 A; Cft2 yPIM peptide; EMSA: SEC 50 buffer (composition not given in material), 50 nM FAM-RNA, 10% native PAGE 1X TBE, room temperature; SEC: Superose 6 Increase 3.2/300 in SEC 50; conditions: tags: untagged (from polymerase module-Mpe1 purification); Pfs2-SII in some preparations;C-terminal SII;; copies: 1;1;2;1;1;1;1; single strand; 4 nt modelled

| Binder | binding result [1] | binding result [2] | binding result [3] |
| --- | --- | --- | --- |
| UUUAUAGUUAUGUUAGUAUUAAGAACGUUAUUUAUAUUUCAA (ssRNA) [precleaved CYC1 (pcCYC1), 42 nt] | binds | – | – |
| UUUAUAGUUAUGUUAGUAUUAAGAACGUUAUUUAUAUUUCAA (ssRNA) [precleaved CYC1 used for cryo-EM (IDT FAM or T7 version not stated)] | – | binds | binds |

From paper PMC9380774, “Mpe1 senses the binding of pre-mRNA and controls 3′ end processing by CPF” (Molecular Cell, 2022)
